1 molecule from paper doi:10.1101/577437 (bioRxiv, 2019) can be followed below.

The target of this test is T1, RALA (residues 1-183) (UniProt P11233 1-183).
T1 sequence: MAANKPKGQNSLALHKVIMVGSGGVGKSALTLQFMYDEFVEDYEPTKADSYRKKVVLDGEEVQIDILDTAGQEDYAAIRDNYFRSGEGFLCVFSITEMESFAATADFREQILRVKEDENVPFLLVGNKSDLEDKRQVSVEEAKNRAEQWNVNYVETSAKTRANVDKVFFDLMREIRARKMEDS
The test is described as follows: NMR titration.

B1: human RLIP76 RBD (residues 395-517) (domain or fragment)
chain: QAGIKEEIRRQEFLLNCLHRDLQGGIKDLSKEERLWEVQRILTALKRKLREAKRQECETKIAQEIASLSKEDVSKEEMNENEEVINILLAQENEILTEQEELLAMEQFLRRQIASEKEEIERL
Take B1: the binding result is listed as “binds”.
